According to the supplement of paper PMC10065799, “High-throughput profiling of sequence recognition by tyrosine kinases and SH2 domains using bacterial peptide display” (eLife, 2023):
Values belong to the sequence of their own block, whether it stands above or below them.

Legend:
Jak2 = Jak2 (UniProt O60674); experiment: phosphorylation enrichment, bacterial display (enrichment ratio); higher = better substrate or ligand; peptides without Tyr show the background
EPHB2 = EPHB2 (UniProt P29323); experiment: as above
c-Abl (mouse) = experiment: as above
c-Src = experiment: as above
AncSZ = experiment: as above
FGFR1 = FGFR1 (UniProt P11362); experiment: as above
Fes = Fes (UniProt P07332); experiment: as above
FGFR3 = FGFR3 (UniProt P22607); experiment: as above
Fyn = Fyn (UniProt P06241); experiment: as above
MERTK = MERTK (UniProt Q12866); experiment: as above
Hck = Hck (UniProt P08631); experiment: as above
Fer (mouse) = experiment: as above
EPHB1 = EPHB1 (UniProt P54762); experiment: as above
Grb2 SH2 = Grb2 SH2 (UniProt P62993); experiment: SH2 binding enrichment of the phosphorylated peptide, bacterial display (enrichment ratio); higher = better substrate or ligand; peptides without Tyr show the background
SHP2-C SH2 = experiment: as above
c-Src SH2 = experiment: as above
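Throughout, for SH2 binding enrichment of the phosphorylated peptide, bacterial display: peptide library displayed on the E. coli surface as eCPX fusions, selected cells deep-sequenced, score is each peptide's frequency after selection divided by its frequency in the input.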
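Throughout, for phosphorylation enrichment, bacterial display: 11-residue human phosphosite peptides and single-mutation variants displayed on the E. coli surface, counted by deep sequencing, each peptide's frequency after selection divided by its frequency in the unselected input library; frequency after pTyr selection over input frequency; kinase dosed for 20-30% of maximal phosphorylation in three min.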

FGFR3, sequence (P22607 whole entry, looked up): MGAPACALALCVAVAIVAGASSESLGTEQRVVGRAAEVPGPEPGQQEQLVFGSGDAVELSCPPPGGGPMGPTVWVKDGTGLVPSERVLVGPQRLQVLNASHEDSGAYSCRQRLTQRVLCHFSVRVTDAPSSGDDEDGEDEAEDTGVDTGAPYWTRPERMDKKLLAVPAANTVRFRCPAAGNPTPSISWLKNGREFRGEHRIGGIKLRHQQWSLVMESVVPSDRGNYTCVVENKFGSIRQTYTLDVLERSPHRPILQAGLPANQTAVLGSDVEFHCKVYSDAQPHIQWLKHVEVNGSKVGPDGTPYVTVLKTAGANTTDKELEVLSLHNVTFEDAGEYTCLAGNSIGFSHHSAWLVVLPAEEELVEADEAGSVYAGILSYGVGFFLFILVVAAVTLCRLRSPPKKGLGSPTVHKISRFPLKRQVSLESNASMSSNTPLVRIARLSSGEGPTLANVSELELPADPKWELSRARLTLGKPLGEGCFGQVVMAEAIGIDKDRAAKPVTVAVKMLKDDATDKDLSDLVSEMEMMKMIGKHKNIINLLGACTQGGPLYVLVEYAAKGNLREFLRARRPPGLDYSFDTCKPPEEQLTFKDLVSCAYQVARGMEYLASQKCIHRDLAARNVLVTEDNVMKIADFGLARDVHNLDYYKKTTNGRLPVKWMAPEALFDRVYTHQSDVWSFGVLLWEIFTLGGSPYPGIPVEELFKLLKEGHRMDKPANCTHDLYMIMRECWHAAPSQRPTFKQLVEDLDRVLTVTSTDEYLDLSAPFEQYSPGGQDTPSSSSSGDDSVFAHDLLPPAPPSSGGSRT
Jak2, sequence (O60674 whole entry, looked up): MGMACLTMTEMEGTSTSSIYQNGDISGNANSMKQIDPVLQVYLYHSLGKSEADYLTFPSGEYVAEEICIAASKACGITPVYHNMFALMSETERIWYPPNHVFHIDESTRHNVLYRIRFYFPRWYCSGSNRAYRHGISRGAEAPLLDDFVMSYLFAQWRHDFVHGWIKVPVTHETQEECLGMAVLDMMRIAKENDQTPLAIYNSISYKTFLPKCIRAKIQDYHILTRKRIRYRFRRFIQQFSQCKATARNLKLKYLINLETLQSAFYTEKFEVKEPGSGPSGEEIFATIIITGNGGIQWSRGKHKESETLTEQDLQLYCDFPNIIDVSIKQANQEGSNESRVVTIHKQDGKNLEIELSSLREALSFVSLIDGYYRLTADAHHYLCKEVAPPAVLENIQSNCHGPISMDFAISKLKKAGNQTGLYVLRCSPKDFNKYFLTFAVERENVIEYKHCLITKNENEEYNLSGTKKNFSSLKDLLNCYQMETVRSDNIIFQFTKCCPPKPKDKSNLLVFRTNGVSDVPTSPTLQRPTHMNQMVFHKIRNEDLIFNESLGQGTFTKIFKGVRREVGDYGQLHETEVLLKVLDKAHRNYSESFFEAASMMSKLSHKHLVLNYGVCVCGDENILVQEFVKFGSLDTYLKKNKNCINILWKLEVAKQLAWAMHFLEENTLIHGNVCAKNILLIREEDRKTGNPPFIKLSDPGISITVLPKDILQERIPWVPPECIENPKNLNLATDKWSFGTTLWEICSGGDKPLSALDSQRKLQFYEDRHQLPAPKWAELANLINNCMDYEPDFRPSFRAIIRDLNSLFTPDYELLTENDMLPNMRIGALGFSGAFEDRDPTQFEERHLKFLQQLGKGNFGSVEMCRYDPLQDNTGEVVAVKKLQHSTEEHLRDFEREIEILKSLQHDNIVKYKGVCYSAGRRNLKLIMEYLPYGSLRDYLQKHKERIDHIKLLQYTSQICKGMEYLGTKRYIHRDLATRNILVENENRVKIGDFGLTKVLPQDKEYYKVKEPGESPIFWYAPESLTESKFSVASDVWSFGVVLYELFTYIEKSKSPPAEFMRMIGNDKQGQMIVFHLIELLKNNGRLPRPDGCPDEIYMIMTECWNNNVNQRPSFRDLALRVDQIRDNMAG
EPHB1, sequence (P54762 whole entry, looked up): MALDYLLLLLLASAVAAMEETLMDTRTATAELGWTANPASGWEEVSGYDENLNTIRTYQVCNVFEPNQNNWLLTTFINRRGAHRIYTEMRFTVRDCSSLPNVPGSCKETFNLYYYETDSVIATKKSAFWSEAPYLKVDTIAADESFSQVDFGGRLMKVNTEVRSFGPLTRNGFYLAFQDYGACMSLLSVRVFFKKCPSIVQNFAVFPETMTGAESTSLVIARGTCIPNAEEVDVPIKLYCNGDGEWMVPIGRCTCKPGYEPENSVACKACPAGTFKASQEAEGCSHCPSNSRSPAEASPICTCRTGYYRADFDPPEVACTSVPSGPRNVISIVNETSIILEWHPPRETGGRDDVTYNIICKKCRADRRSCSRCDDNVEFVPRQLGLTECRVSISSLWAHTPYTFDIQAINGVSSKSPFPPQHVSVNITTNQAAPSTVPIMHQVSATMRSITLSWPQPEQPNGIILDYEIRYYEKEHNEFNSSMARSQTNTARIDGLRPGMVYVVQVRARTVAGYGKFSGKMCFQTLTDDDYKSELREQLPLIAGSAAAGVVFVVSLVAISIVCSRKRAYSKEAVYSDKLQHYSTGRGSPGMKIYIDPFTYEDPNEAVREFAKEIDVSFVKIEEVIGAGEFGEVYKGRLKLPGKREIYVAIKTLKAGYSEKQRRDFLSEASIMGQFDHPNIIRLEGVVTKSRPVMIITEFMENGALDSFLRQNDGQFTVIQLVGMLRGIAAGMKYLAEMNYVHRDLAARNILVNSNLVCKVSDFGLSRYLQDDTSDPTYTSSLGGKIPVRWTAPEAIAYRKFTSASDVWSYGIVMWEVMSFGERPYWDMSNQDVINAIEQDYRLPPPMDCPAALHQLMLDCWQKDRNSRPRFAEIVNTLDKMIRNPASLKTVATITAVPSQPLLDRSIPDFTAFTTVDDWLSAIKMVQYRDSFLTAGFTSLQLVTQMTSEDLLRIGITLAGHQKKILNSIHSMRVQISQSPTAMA
MERTK, sequence (Q12866 whole entry, looked up): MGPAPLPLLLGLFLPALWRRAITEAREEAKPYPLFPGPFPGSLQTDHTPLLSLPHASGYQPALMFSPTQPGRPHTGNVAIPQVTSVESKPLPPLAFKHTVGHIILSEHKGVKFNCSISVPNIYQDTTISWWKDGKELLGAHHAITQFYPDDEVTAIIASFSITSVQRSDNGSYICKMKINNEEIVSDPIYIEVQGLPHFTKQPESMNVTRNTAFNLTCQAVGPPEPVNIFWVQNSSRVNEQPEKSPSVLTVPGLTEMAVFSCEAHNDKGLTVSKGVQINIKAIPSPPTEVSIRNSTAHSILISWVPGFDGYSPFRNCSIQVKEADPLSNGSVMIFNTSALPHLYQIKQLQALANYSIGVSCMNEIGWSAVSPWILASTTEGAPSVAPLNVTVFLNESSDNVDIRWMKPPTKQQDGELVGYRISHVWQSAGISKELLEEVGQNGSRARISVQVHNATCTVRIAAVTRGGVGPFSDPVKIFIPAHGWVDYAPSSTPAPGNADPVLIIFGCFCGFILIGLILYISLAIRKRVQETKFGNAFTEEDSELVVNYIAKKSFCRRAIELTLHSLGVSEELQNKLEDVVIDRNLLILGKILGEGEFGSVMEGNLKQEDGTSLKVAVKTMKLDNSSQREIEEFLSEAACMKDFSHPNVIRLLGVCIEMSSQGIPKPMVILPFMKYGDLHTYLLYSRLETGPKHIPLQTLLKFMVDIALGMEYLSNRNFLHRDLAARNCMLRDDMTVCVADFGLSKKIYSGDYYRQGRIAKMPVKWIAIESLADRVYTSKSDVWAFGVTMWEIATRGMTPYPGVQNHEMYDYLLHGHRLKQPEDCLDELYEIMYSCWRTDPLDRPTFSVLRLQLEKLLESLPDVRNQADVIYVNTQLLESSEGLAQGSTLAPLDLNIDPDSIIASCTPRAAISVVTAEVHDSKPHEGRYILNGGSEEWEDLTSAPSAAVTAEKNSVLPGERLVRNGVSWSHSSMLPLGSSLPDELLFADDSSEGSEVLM
EPHB2, sequence (P29323 whole entry, looked up): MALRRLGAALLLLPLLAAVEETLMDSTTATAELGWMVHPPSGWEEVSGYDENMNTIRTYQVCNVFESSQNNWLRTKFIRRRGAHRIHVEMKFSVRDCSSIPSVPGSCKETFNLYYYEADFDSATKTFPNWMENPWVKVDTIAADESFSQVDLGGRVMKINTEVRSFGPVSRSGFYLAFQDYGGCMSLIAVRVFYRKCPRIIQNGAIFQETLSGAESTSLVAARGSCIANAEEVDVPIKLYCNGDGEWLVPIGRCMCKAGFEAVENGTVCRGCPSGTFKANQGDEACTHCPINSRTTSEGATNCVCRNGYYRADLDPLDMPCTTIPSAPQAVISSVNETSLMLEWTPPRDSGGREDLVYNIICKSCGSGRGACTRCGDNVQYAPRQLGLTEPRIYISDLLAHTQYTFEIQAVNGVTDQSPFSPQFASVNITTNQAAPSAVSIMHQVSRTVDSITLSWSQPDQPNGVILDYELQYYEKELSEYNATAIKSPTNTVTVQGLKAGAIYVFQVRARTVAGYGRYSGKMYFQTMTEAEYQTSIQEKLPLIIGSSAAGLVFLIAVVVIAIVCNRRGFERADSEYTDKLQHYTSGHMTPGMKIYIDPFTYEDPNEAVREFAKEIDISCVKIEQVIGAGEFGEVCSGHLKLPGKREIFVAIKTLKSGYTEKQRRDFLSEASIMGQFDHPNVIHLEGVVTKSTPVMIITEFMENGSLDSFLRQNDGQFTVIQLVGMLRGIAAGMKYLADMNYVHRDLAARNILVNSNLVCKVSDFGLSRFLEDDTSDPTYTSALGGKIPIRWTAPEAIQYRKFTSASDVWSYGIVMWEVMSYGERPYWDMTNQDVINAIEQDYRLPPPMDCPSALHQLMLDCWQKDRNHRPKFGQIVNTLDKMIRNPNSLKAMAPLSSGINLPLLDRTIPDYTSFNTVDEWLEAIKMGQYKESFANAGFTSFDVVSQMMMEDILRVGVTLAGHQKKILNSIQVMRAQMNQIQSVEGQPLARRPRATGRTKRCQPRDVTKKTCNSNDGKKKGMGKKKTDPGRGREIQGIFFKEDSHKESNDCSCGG

Sequence: MSGDVYSTDFF [NTRK2_Y702_R699G_YF]
phosphorylation enrichment (Jak2): 0.959
phosphorylation enrichment (EPHB2): 1.32
phosphorylation enrichment (c-Abl (mouse)): 0.736
phosphorylation enrichment (c-Src): 4.62
phosphorylation enrichment (AncSZ): 1.08
phosphorylation enrichment (FGFR1): 1.42
phosphorylation enrichment (Fes): 1.06
phosphorylation enrichment (FGFR3): 1.18
phosphorylation enrichment (Fyn): 5.33
phosphorylation enrichment (MERTK): 6.82
phosphorylation enrichment (Hck): 2.4
phosphorylation enrichment (Fer (mouse)): 0.775
phosphorylation enrichment (EPHB1): 1.02
SH2 binding enrichment (Grb2 SH2): 0.701
SH2 binding enrichment (SHP2-C SH2): 1.15
SH2 binding enrichment (c-Src SH2): 0.526

Sequence: EQLQSYQVEII [KRT33A_Y268_A270V]
phosphorylation enrichment (Jak2): 0.945
phosphorylation enrichment (EPHB2): 0.529
phosphorylation enrichment (c-Abl (mouse)): 0.858
phosphorylation enrichment (c-Src): 0.575
phosphorylation enrichment (AncSZ): 1.14
phosphorylation enrichment (FGFR1): 0.531
phosphorylation enrichment (Fes): 1.21
phosphorylation enrichment (FGFR3): 0.762
phosphorylation enrichment (Fyn): 0.579
phosphorylation enrichment (MERTK): 0.513
phosphorylation enrichment (Hck): 0.53
phosphorylation enrichment (Fer (mouse)): 0.597
phosphorylation enrichment (EPHB1): 0.67
SH2 binding enrichment (Grb2 SH2): 0.832
SH2 binding enrichment (SHP2-C SH2): 0.629
SH2 binding enrichment (c-Src SH2): 0.457

Sequence: PPTFRYERGSR [INPPL1_Y663_YF]
phosphorylation enrichment (Jak2): 0.692
phosphorylation enrichment (EPHB2): 0.579
phosphorylation enrichment (c-Abl (mouse)): 0.704
phosphorylation enrichment (c-Src): 0.521
phosphorylation enrichment (AncSZ): 0.974
phosphorylation enrichment (FGFR1): 0.803
phosphorylation enrichment (Fes): 0.822
phosphorylation enrichment (FGFR3): 0.69
phosphorylation enrichment (Fyn): 0.671
phosphorylation enrichment (MERTK): 0.753
phosphorylation enrichment (Hck): 0.622
phosphorylation enrichment (Fer (mouse)): 0.546
phosphorylation enrichment (EPHB1): 0.503
SH2 binding enrichment (Grb2 SH2): 0.503
SH2 binding enrichment (SHP2-C SH2): 0.318
SH2 binding enrichment (c-Src SH2): 0.336

Sequence: RWGQKYMTAVV [CYBA_Y72]
phosphorylation enrichment (Jak2): 0.409
phosphorylation enrichment (EPHB2): 0.783
phosphorylation enrichment (c-Abl (mouse)): 0.328
phosphorylation enrichment (c-Src): 0.312
phosphorylation enrichment (AncSZ): 0.731
phosphorylation enrichment (FGFR1): 0.654
phosphorylation enrichment (Fes): 0.665
phosphorylation enrichment (FGFR3): 0.884
phosphorylation enrichment (Fyn): 0.488
phosphorylation enrichment (MERTK): 0.452
phosphorylation enrichment (Hck): 0.609
phosphorylation enrichment (Fer (mouse)): 0.568
phosphorylation enrichment (EPHB1): 0.494
SH2 binding enrichment (Grb2 SH2): 1.57
SH2 binding enrichment (SHP2-C SH2): 0.698
SH2 binding enrichment (c-Src SH2): 0.948

Sequence: ADPQEYIPLPA [JAKtide_2014]
phosphorylation enrichment (Jak2): 0.865
phosphorylation enrichment (EPHB2): 0.49
phosphorylation enrichment (c-Abl (mouse)): 0.628
phosphorylation enrichment (c-Src): 0.468
phosphorylation enrichment (AncSZ): 0.904
phosphorylation enrichment (FGFR1): 0.75
phosphorylation enrichment (Fes): 0.983
phosphorylation enrichment (FGFR3): 0.693
phosphorylation enrichment (Fyn): 0.512
phosphorylation enrichment (MERTK): 0.425
phosphorylation enrichment (Hck): 0.549
phosphorylation enrichment (Fer (mouse)): 0.457
phosphorylation enrichment (EPHB1): 0.529
SH2 binding enrichment (Grb2 SH2): 1
SH2 binding enrichment (SHP2-C SH2): 0.809
SH2 binding enrichment (c-Src SH2): 0.571

Sequence: KLIETCFSKNY [PLP1_Y50_Y50C]
phosphorylation enrichment (Jak2): 1.13
phosphorylation enrichment (EPHB2): 0.555
phosphorylation enrichment (c-Abl (mouse)): 0.973
phosphorylation enrichment (c-Src): 0.524
phosphorylation enrichment (AncSZ): 1.07
phosphorylation enrichment (FGFR1): 0.473
phosphorylation enrichment (Fes): 1.38
phosphorylation enrichment (FGFR3): 0.739
phosphorylation enrichment (Fyn): 0.456
phosphorylation enrichment (MERTK): 0.474
phosphorylation enrichment (Hck): 0.621
phosphorylation enrichment (Fer (mouse)): 0.47
phosphorylation enrichment (EPHB1): 0.576
SH2 binding enrichment (Grb2 SH2): 0.748
SH2 binding enrichment (SHP2-C SH2): 0.652
SH2 binding enrichment (c-Src SH2): 0.447

Sequence: PLYRKYWPNHI [GREB1L_Y1560]
phosphorylation enrichment (Jak2): 0.95
phosphorylation enrichment (EPHB2): 0.645
phosphorylation enrichment (c-Abl (mouse)): 1.05
phosphorylation enrichment (c-Src): 0.882
phosphorylation enrichment (AncSZ): 1.48
phosphorylation enrichment (FGFR1): 1.15
phosphorylation enrichment (Fes): 1.34
phosphorylation enrichment (FGFR3): 1.07
phosphorylation enrichment (Fyn): 1.07
phosphorylation enrichment (MERTK): 0.708
phosphorylation enrichment (Hck): 1.11
phosphorylation enrichment (Fer (mouse)): 0.84
phosphorylation enrichment (EPHB1): 0.813
SH2 binding enrichment (Grb2 SH2): 1.09
SH2 binding enrichment (SHP2-C SH2): 1.24
SH2 binding enrichment (c-Src SH2): 0.822

Sequence: QYQEKYKQMEQ [HCN4_Y531_V534M]
phosphorylation enrichment (Jak2): 0.684
phosphorylation enrichment (EPHB2): 0.507
phosphorylation enrichment (c-Abl (mouse)): 0.584
phosphorylation enrichment (c-Src): 0.374
phosphorylation enrichment (AncSZ): 0.99
phosphorylation enrichment (FGFR1): 0.618
phosphorylation enrichment (Fes): 1.23
phosphorylation enrichment (FGFR3): 0.827
phosphorylation enrichment (Fyn): 0.547
phosphorylation enrichment (MERTK): 0.287
phosphorylation enrichment (Hck): 0.431
phosphorylation enrichment (Fer (mouse)): 0.632
phosphorylation enrichment (EPHB1): 0.61
SH2 binding enrichment (Grb2 SH2): 0.891
SH2 binding enrichment (SHP2-C SH2): 0.705
SH2 binding enrichment (c-Src SH2): 0.436

Sequence: PDMHSYMVRYN [GRIN2D_Y732]
phosphorylation enrichment (Jak2): 1.07
phosphorylation enrichment (EPHB2): 0.787
phosphorylation enrichment (c-Abl (mouse)): 1.02
phosphorylation enrichment (c-Src): 0.782
phosphorylation enrichment (AncSZ): 0.955
phosphorylation enrichment (FGFR1): 0.767
phosphorylation enrichment (Fes): 1.09
phosphorylation enrichment (FGFR3): 1.04
phosphorylation enrichment (Fyn): 0.64
phosphorylation enrichment (MERTK): 0.616
phosphorylation enrichment (Hck): 0.706
phosphorylation enrichment (Fer (mouse)): 0.674
phosphorylation enrichment (EPHB1): 0.637
SH2 binding enrichment (Grb2 SH2): 0.858
SH2 binding enrichment (SHP2-C SH2): 0.97
SH2 binding enrichment (c-Src SH2): 0.613

Second part, led by results:

SH2 binding enrichment (Grb2 SH2): 1.15
SH2 binding enrichment (SHP2-C SH2): 1.04
SH2 binding enrichment (c-Src SH2): 0.851
Sequence: KLLLKYSFHDV [RNF213_Y4141]
phosphorylation enrichment (Jak2): 1.57
phosphorylation enrichment (EPHB2): 0.598
phosphorylation enrichment (c-Abl (mouse)): 0.878
phosphorylation enrichment (c-Src): 0.436
phosphorylation enrichment (AncSZ): 1.27
phosphorylation enrichment (FGFR1): 0.439
phosphorylation enrichment (Fes): 1.31
phosphorylation enrichment (FGFR3): 0.808
phosphorylation enrichment (Fyn): 0.418
phosphorylation enrichment (MERTK): 0.4
phosphorylation enrichment (Hck): 0.506
phosphorylation enrichment (Fer (mouse)): 0.537
phosphorylation enrichment (EPHB1): 0.56

SH2 binding enrichment (Grb2 SH2): 0.703
SH2 binding enrichment (SHP2-C SH2): 0.537
SH2 binding enrichment (c-Src SH2): 0.511
Sequence: KDFTIYNPNLL [VANGL1_Y290]
phosphorylation enrichment (Jak2): 0.815
phosphorylation enrichment (EPHB2): 0.42
phosphorylation enrichment (c-Abl (mouse)): 0.71
phosphorylation enrichment (c-Src): 1.2
phosphorylation enrichment (AncSZ): 0.722
phosphorylation enrichment (FGFR1): 0.434
phosphorylation enrichment (Fes): 0.835
phosphorylation enrichment (FGFR3): 0.518
phosphorylation enrichment (Fyn): 0.787
phosphorylation enrichment (MERTK): 0.478
phosphorylation enrichment (Hck): 1.58
phosphorylation enrichment (Fer (mouse)): 0.599
phosphorylation enrichment (EPHB1): 0.419

SH2 binding enrichment (Grb2 SH2): 1.71
SH2 binding enrichment (SHP2-C SH2): 1.57
SH2 binding enrichment (c-Src SH2): 1.72
Sequence: CTTIHYNFMCI [TP53_Y234_N239I_YF]
phosphorylation enrichment (Jak2): 0.969
phosphorylation enrichment (EPHB2): 0.673
phosphorylation enrichment (c-Abl (mouse)): 0.809
phosphorylation enrichment (c-Src): 0.434
phosphorylation enrichment (AncSZ): 1.05
phosphorylation enrichment (FGFR1): 0.598
phosphorylation enrichment (Fes): 1.26
phosphorylation enrichment (FGFR3): 0.707
phosphorylation enrichment (Fyn): 0.477
phosphorylation enrichment (MERTK): 0.392
phosphorylation enrichment (Hck): 0.529
phosphorylation enrichment (Fer (mouse)): 0.706
phosphorylation enrichment (EPHB1): 0.621

SH2 binding enrichment (Grb2 SH2): 0.838
SH2 binding enrichment (SHP2-C SH2): 0.641
SH2 binding enrichment (c-Src SH2): 0.693
Sequence: KMLEKYKERLN [TLK2_Y259]
phosphorylation enrichment (Jak2): 0.834
phosphorylation enrichment (EPHB2): 0.5
phosphorylation enrichment (c-Abl (mouse)): 1.27
phosphorylation enrichment (c-Src): 0.463
phosphorylation enrichment (AncSZ): 0.634
phosphorylation enrichment (FGFR1): 0.46
phosphorylation enrichment (Fes): 0.789
phosphorylation enrichment (FGFR3): 0.557
phosphorylation enrichment (Fyn): 0.43
phosphorylation enrichment (MERTK): 0.475
phosphorylation enrichment (Hck): 0.492
phosphorylation enrichment (Fer (mouse)): 0.444
phosphorylation enrichment (EPHB1): 0.381

SH2 binding enrichment (Grb2 SH2): 0.854
SH2 binding enrichment (SHP2-C SH2): 0.816
SH2 binding enrichment (c-Src SH2): 6.02
Sequence: LTFHMYADPNF [SOS1_Y618_YF]
phosphorylation enrichment (Jak2): 1.61
phosphorylation enrichment (EPHB2): 1.45
phosphorylation enrichment (c-Abl (mouse)): 1.99
phosphorylation enrichment (c-Src): 0.755
phosphorylation enrichment (AncSZ): 1.81
phosphorylation enrichment (FGFR1): 0.715
phosphorylation enrichment (Fes): 1.97
phosphorylation enrichment (FGFR3): 1.1
phosphorylation enrichment (Fyn): 0.577
phosphorylation enrichment (MERTK): 0.843
phosphorylation enrichment (Hck): 0.711
phosphorylation enrichment (Fer (mouse)): 0.901
phosphorylation enrichment (EPHB1): 1.67

SH2 binding enrichment (Grb2 SH2): 0.713
SH2 binding enrichment (SHP2-C SH2): 0.594
SH2 binding enrichment (c-Src SH2): 0.409
Sequence: EDKSIYRRGAR [PRKCI_Y125]
phosphorylation enrichment (Jak2): 0.614
phosphorylation enrichment (EPHB2): 0.425
phosphorylation enrichment (c-Abl (mouse)): 0.644
phosphorylation enrichment (c-Src): 0.593
phosphorylation enrichment (AncSZ): 0.674
phosphorylation enrichment (FGFR1): 0.435
phosphorylation enrichment (Fes): 0.669
phosphorylation enrichment (FGFR3): 0.696
phosphorylation enrichment (Fyn): 0.351
phosphorylation enrichment (MERTK): 0.621
phosphorylation enrichment (Hck): 0.429
phosphorylation enrichment (Fer (mouse)): 0.356
phosphorylation enrichment (EPHB1): 0.315
